Source: publication doi:10.1101/2024.10.21.619555

Molecular target: DR6 ECD-Halo (UniProt O75509)
Experiment: single-molecule dual-color photobleaching

DR6 ECD-Halo, sequence (O75509 42-349): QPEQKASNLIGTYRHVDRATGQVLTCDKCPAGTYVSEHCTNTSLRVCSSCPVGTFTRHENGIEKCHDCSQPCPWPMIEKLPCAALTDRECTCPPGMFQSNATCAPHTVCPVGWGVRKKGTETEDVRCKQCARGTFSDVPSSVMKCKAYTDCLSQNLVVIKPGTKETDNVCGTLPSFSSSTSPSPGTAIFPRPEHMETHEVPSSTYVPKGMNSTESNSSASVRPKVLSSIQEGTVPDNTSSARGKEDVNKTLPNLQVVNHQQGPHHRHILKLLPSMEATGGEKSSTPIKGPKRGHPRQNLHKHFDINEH

## RBP4-SNAP (from UniProt P02753 19-201) (ligand)
  stoichiometry N: 1
